In data set [1] the target is Leishmania infantum asparagine synthetase A, recombinant, poly-His-tagged (Leishmania infantum). In words: SEC; analytic size exclusion chromatography of purified recombinant LiAS-A on Superose 12 10/300GL, calibrated with standards (Kav against Log MW and Log Stokes radius); oligomeric state of the native protein.
Substrate in data set [2]: NC(=O)CC[C@H](N)C(=O)O
In words: colorimetric assay of Asn formation, steady state. Conditions: glutamine as nitrogen donor, other substrates in excess, 8.4 mM Mg2+, 85 mM Tris.HCl pH 7.6, 37°C. The data set is classed as biochemical, Leishmania infantum. An excerpt:
(§1) colorimetric assay of Asn formation, steady state on LiAS-A (Leishmania infantum asparagine synthetase A)

Substrate in data set [3]: N[C@@H](CC(=O)O)C(=O)O
The data set can be described thus: colorimetric assay of Asn formation, steady state. Conditions: other substrates in excess, 8.4 mM Mg2+, 85 mM Tris.HCl pH 7.6, 37°C. In kind it is biochemical, Leishmania infantum.
Excerpt: as §1

Substrate in data set [4]: Nc1ncnc2c1ncn2[C@@H]1O[C@H](COP(=O)(O)OP(=O)(O)OP(=O)(O)O)[C@@H](O)[C@H]1O
In words: colorimetric assay of Asn formation, steady state. In kind it is biochemical, Leishmania infantum. The settings on record: other substrates in excess, 8.4 mM Mg2+, 85 mM Tris.HCl pH 7.6, 37°C.
Excerpt: as §1

Consider “Leishmania infantum asparagine synthetase A, recombinant, poly-His-tagged (enzyme)”, for which, in data set [1], the stoichiometry N was 2.

B1: LiAS-A (Leishmania infantum asparagine synthetase A) (Leishmania infantum) (protein)
chain: MSSSPQEYIDLQTRILRVKTIFAEELASALNLIQVECPMLACVGDGTQDNLSGVEKAVQVHVKEIPGANYEVVHSLAKWKRMTLGNHRFPVGRGIFTNMRALRVEETLDNIHSVYVDQWDWERVIAPADRCLEYLQATVRSLYEVLRETESRLCTEFPDIAPILPDSIKFVHTEQLLKRYPELDPKSREREAVKKLGAVFLIGIGCKLSHGDHHDVRAPDYDDWSSPVSVDSSKIGFPTADDEKPSVNTIMSLQGLNGDILVYNPVLDDVLELSSMGIRVDQEALRRQLEITGTSDRLQCRWHQCVLNGDLPQTIGGGIGQSRTVMFMLRKRHIGEVQCSVWPHEVTAQYSLL
notes: full length, 353 residues, N-terminal 6xHis tag (pET28a) with no cleavage stated, E. coli BL21(DE3)
Consider B1, for which the Michaelis-Menten constant (Km) in data set [2] was determined as 1710 ± 280 µM; in data set [3], 6210 ± 1150 µM; in data set [4], 1470 ± 40 µM. In addition, the results for the kcat in data set [2], in data set [3] and in data set [4] were 4.51 ± 0.19 s⁻¹, 9.19 ± 0.69 s⁻¹ and 4.18 ± 0.02 s⁻¹, respectively.

For the origin of these results see PMC4714757, “Leishmania infantum Asparagine Synthetase A Is Dispensable for Parasites Survival and Infectivity” (PLoS Neglected Tropical Diseases, 2016).
